Assay results reported in PMC7263589, “Integration of phage and yeast display platforms: A reliable and cost effective approach for binning of peptides as displayed on-phage” (PLoS ONE, 2020).
Positions count from the first letter of the chain named. Names and notes keep the numbering of the source. Bridge positions count the residues as written; N and C are the ends. Peptide text beside a SMILES is read from it.

What was measured:
[1] = target: FGL-containing peptide phage (FGL Phage); assay: flow cytometry on yeast-displayed IL-23, phage detected with anti-M13-AF647; settings: n = 2; parent: est. 24; read off a plot
IL-23 = target: T1, IL-23 (Homo sapiens, UniProt P29460+Q9NPF7); assay: SPR direct binding to captured IL-23-AVI (Biacore T200); settings: for kon: 50 μl/min, 10 mM HEPES pH 7.5, 150 mM NaCl, 0.005% P20, 3% DMSO, multi-cycle (single cycle kinetics for 23–652 and IL-23R), read-out: ka
T1 construct: made in house
T1 sequence (Q9NPF7 20-189): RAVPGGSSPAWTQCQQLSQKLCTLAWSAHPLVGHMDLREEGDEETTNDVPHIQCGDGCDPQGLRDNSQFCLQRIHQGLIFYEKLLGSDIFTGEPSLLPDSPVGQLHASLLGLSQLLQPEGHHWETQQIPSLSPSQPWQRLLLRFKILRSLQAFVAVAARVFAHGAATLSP
T1 sequence (P29460 23-328): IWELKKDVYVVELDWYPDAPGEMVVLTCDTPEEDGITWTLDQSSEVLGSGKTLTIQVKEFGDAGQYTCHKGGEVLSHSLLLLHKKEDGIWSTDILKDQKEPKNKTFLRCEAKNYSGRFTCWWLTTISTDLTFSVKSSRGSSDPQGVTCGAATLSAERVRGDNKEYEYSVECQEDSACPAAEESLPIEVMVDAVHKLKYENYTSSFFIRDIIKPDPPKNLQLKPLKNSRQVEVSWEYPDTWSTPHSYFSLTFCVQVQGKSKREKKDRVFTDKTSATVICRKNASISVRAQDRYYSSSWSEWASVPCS
Procedure: SPR (Biacore T200, GE Healthcare) was used to determine binding constants of the peptides against IL-23 and their competitiveness to IL-23R. All SPR experiments were performed at 25°C with flow rate of 50 μl/min. Assay buffer used in direct binding experiment was 10 mM HEPES pH 7.5, 150 mM NaCl, 0.005% P20, and 3% DMSO. Assay buffer used in competition experiment was 10 mM HEPES pH 7.5, 150 mM NaCl, 0.005% P20, and 1% BSA. All peptides were reconstituted first in DMSO as 10 mM stocks and then diluted into assay buffer. The proteins used in direct binding and competition SPR are described in S1 Table in S1 File. For direct binding of peptides against IL-23, 2000–9000 RU of IL-23-AVI was captured to streptavidin sensor chips (GE Healthcare, Series S Sensor Chip SA, BR-1005-31). Dilution series with 3-fold increment were prepared for each peptide. Initially, all peptides were tested up to 30 μM. Concentration range for some were then lowered accordingly based on affinity or nuisance behavior at high concentrations. SPR “multi-cycle” type was used for peptides 23–644, 23–437, 23–441, 23–446, and 23–447. Each cycle consisted of 30s of analyte injection and then 60s of buffer flow to monitor dissociation. “Single cycle kinetics” (SCK) type was used for 23–652 due to their long dissociation half-lives. Each SCK cycle consisted of five 60s injections of sample in increasing concentration with a final 600s of dissociation. To study IL-23 and IL-23R interaction, 200–1000 RU of IL-23-AVI and IL-23R-Fc-AVI were captured to streptavidin sensor chip. Dilution series with 3-fold increment of IL-23R-FLAG-HIS and IL-23-HIS were run in SCK cycle type as described above except the final dissociation time were 60-300s. Sensorgrams from the entire titration series for each sample were fitted globally to extract binding kinetics and affinity using Biacore T200 Evaluation Software 2.0 (GE Healthcare) according to a 1:1 binding model. To identify IL-23 binders that can block receptor binding, a competition SPR was established. In each SPR cycle, fresh IL-23R was capture (<1000 RU) by injecting 10 μg/ml of IL-23R-Fc-AVI to a Protein-A flow cell at 10 μl/min flow rate for 30s. Analyte consisted of a mixture of 20 nM of IL-23 protein and a single concentration of peptide was then injected for 30s at 50 μl/min to observe IL-23 binding. Finally, the Protein-A surface was regenerated by 10 mM Glycine pH 1.5 for 30s at 30 μl/min. IL-23 at 20 nM without peptide, “IL-23 only”, was used as control to quantify IL-23 binding without blockage; while “cold” IL-23R was used as a positive control for blockage.

IL-23-AVI [2] = target: T2, IL-23-AVI (human, UniProt Q9NPF7 20-189; P29460 23-328); assay: SPR; Biacore T200, 25°C, 50 μl/min; 2000–9000 RU of IL-23-AVI captured to streptavidin chip, peptides as analyte (3-fold series, up to 30 μM); 10 mM HEPES pH 7.5, 150 mM NaCl, 0.005% P20, 3% DMSO; multi-cycle, single cycle kinetics for 23–652; 1:1 model; n = 1; settings: both partners purified
T2 construct: IL-23 p19 subunit, human; IL-12/IL-23 p40 subunit, human; Captured on streptavidin chips and beads, so biotinylation of the Avi tag is implied; also called Avi-tagged IL-23; recombinant IL-23
T2 sequence (looked up) 1: T1 sequence (Q9NPF7 20-189)
T2 sequence (looked up) 2: T1 sequence (P29460 23-328)

[3] = target: T3, Fluorescently labeled IL-23R, Q5VWK5; assay: flow cytometry on yeast-displayed IL-23; settings: chain shown with the change; n = 1; parent: est. 1.05; read off a plot
T3 chain: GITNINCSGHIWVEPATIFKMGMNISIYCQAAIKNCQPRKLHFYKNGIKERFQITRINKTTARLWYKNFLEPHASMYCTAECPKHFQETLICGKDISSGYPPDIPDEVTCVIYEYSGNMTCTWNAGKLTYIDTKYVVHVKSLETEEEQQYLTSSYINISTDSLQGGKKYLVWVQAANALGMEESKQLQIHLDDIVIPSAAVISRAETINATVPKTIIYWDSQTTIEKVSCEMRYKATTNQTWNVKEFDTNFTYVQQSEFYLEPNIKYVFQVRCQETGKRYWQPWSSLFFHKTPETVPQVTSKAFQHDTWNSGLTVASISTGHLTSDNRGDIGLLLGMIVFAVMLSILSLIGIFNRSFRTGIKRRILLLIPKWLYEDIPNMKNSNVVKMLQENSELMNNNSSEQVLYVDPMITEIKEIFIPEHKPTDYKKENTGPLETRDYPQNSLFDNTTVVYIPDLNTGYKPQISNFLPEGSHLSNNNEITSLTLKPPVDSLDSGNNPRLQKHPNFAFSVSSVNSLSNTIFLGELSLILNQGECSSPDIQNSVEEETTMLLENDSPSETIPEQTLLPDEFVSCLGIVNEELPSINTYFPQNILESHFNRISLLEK

IL-23-AVI [4] = target: T2, IL-23-AVI; assay: AlphaScreen or HTRF; TR-FRET; compounds pre-incubated with IL-23R-FLAG 1 h, then IL-23-AVI; Europium-streptavidin and anti-FLAG-allophycocyanin; 25 mM HEPES, 150 mM NaCl, 0.02% Tween 20, 0.1% BSA, pH 7.4, 1% DMSO; n = 1; settings: both partners purified
IL-23-AVI [5] = target: T2, IL-23-AVI; assay: AlphaScreen or HTRF; AlphaLISA; IL-23-AVI (1.5 nM) pre-incubated with peptide 30 min, then FLAG-tagged IL-23R (3 nM); streptavidin donor and anti-FLAG acceptor beads; 25 mM HEPES pH 7.4, 150 mM NaCl, 0.02% Tween 20, 0.1% BSA; room temperature; n = 1; settings: both partners purified
[6] = IL-23-AVI captured on streptavidin chip, 25°C, 1:1 binding model, n = 1, 23–447 an estimate

wild-type IL-23 displayed on yeast (from UniProt Q9NPF7;P29460) W137A
response [1]: 23

CC[C@H](C)[C@H](NC(=O)[C@H](CO)NC(=O)[C@H](Cc1c[nH]c2ccccc12)NC(=O)[C@H](CC(C)C)NC(=O)[C@H](CCSC)NC(=O)[C@@H]1CSSC[C@H](NC(=O)[C@H](CC(C)C)NC(=O)[C@@H](NC(=O)[C@H](CCC(N)=O)NC(=O)[C@H](CC(C)C)NC(=O)[C@@H](N)CC(C)C)[C@@H](C)O)C(=O)N[C@@H](CCC(N)=O)C(=O)N[C@@H](CCSC)C(=O)N[C@@H]([C@@H](C)O)C(=O)N[C@@H](CO)C(=O)N[C@@H](CC(=O)O)C(=O)N[C@@H](C)C(=O)N[C@@H](CCCNC(=N)N)C(=O)N[C@@H]([C@@H](C)O)C(=O)N1)C(=O)O [23–443] (H-LLQTLCQMTSDARTCMLWSI-OH; disulfide 6-15 (inferred); N-terminus and C-terminus assumed)
Kd (IL-23; IL-23-AVI captured on streptavidin chip, 25°C, 1:1 binding model, n = 1, 23–447 an estimate, NB: not binding as free peptide): > 30000 nM
binding to IL-23 as a free peptide (IL-23; chemically synthesized peptide): did not retain its binding

CSCC[C@H](NC(=O)[C@H](CCC(N)=O)NC(=O)[C@@H]1CSSC[C@H](NC(=O)[C@H](Cc2ccccc2)NC(=O)[C@H](CO)NC(=O)[C@H](CCCCN)NC(=O)[C@@H](NC(=O)[C@H](CC(C)C)NC(=O)[C@@H](NC(=O)[C@@H](N)CC(=O)O)[C@@H](C)O)[C@@H](C)O)C(=O)N[C@@H](Cc2ccc(O)cc2)C(=O)N[C@@H](Cc2ccccc2)C(=O)NCC(=O)N[C@@H]([C@@H](C)O)C(=O)N[C@@H](Cc2c[nH]c3ccccc23)C(=O)N1)C(=O)N[C@@H](Cc1ccc(O)cc1)C(=O)NCC(=O)N[C@@H](CO)C(=O)N[C@H](C(=O)O)[C@@H](C)O [23–652] (H-DTLTKSFCYFGTWCQMYGST-OH; disulfide 8-14)
kon (IL-23; [6]): 36600 M⁻¹ s⁻¹

wild-type IL-23 displayed on yeast (from UniProt Q9NPF7;P29460) L24A
response [1]: 17

CC(C)C[C@@H]1NC(=O)CNC(=O)[C@H](Cc2ccccc2)NC(=O)[C@H](Cc2c[nH]c3ccccc23)NC(=O)[C@@H](NC(=O)[C@@H]2CCCN2C(=O)[C@H](CC(=O)O)NC(=O)[C@@H]2CCCN2C(=O)[C@@H](NC(=O)[C@@H](N)Cc2c[nH]cn2)C(C)C)CSSC[C@@H](C(=O)N[C@@H](CC(=O)O)C(=O)N[C@H](C(=O)N[C@@H](CC(C)C)C(=O)N[C@@H](CC(N)=O)C(=O)N[C@@H](CO)C(=O)O)C(C)C)NC(=O)[C@H](CC(C)C)NC1=O [23–644] (H-HVPDPCWFGLLCDVLNS-OH; disulfide 6-12)
kon (IL-23; [6]): 49300 M⁻¹ s⁻¹

wild-type IL-23 displayed on yeast (from UniProt Q9NPF7;P29460) W26A
response [1]: 1.1

wild-type IL-23 displayed on yeast (from UniProt Q9NPF7;P29460) K20A
response [1]: 22

CC(C)C[C@H](NC(=O)CN)C(=O)N[C@@H](CCCNC(=N)N)C(=O)N[C@@H](CCC(=O)O)C(=O)N[C@@H](CCCNC(=N)N)C(=O)N[C@H]1CSSC[C@@H](C(=O)N[C@@H](CCC(N)=O)C(=O)N[C@@H](CC(N)=O)C(=O)N[C@@H](Cc2c[nH]c3ccccc23)C(=O)N[C@@H](Cc2ccc(O)cc2)C(=O)N[C@@H](Cc2c[nH]c3ccccc23)C(=O)O)NC(=O)[C@H](Cc2ccccc2)NC(=O)[C@H](CCC(=O)O)NC(=O)[C@H](Cc2c[nH]cn2)NC(=O)CNC(=O)[C@H](Cc2ccc(O)cc2)NC(=O)[C@H](CC(N)=O)NC(=O)[C@H](CCCNC(=N)N)NC(=O)[C@H](C(C)C)NC1=O [23–446] (H-GLRERCVRNYGHEFCQNWYW-OH; disulfide 6-15)
kon (IL-23; [6]): 3.88e+06 M⁻¹ s⁻¹

B1: peptide 23–652 (free, chemically synthesized) (peptide)
peptide: DTLTKSFCYFGTWCQMYGST
notes: selected from a peptide phage library against IL-23; Two cysteines; also called FGLT-containing peptide; FGL-containing peptide; source: synthetic peptide (CPC Scientific)
Kd (IL-23-AVI [2]): 71.8 nM
koff (IL-23-AVI [2]): 0.00263 s⁻¹
kon (IL-23-AVI [2]): 36600 M⁻¹ s⁻¹

B2: wild-type IL-23 displayed on yeast, Q9NPF7;P29460 K145A (protein)
chain 1: T1 sequence (Q9NPF7 20-189) with K145A
chain 2: T1 sequence (P29460 23-328)
ratio to parent [3]: 0.18

B3: peptide 23–644 (free, chemically synthesized) (peptide)
peptide: HVPDPCWFGLLCDVLNS
notes: selected from a peptide phage library against IL-23; Two cysteines; also called FGL-containing peptide; source: synthetic peptide (CPC Scientific)
Kd (IL-23-AVI [2]): 2620 nM
koff (IL-23-AVI [2]): 0.129 s⁻¹
kon (IL-23-AVI [2]): 49300 M⁻¹ s⁻¹

B4: peptide 23–446 (free, chemically synthesized) (peptide)
peptide: GLRERCVRNYGHEFCQNWYW
notes: selected from a peptide phage library against IL-23; Two cysteines; source: synthetic peptide (CPC Scientific)
IC50 (IL-23-AVI [4]): 590 nM
IC50 (IL-23-AVI [5]): 240 nM
Kd (IL-23-AVI [2]): 22.3 nM
koff (IL-23-AVI [2]): 0.0863 s⁻¹
kon (IL-23-AVI [2]): 3.88e+06 M⁻¹ s⁻¹
